How the values were obtained:
human CD40 on cells [1] = target: T1, human CD40 on cells (human, UniProt P25942 21-277); test: cell-based or functional assay
human CD40 on cells [2] = target: T1, human CD40 on cells; test: flow cytometry on Raji cells; EC50 relative to mAb1
Protocol: (§1) Briefly, Raji cells were seeded in 96-well plates at 1.0×10⁵ cells/well and incubated with serially-diluted test antibodies for 60 minutes at 4° C. in 2% FBS/dPBS buffer. The cells were then washed twice with dPBS and further incubated with secondary allophycocyanin (APC)-conjugated AffiniPure F(ab′)₂ fragment donkey anti-human IgG (H+L) antibody (Jackson ImmunoResearch, Ref. 709-136-149) (1:500) for 30 minutes at 4° C. Finally, the cells were washed twice with dPBS and suspended in FACS buffer for flow cytometry analysis. MFI values vs concentrations were analyzed by FlowJo and data were further fitted with four-parameter non-linear regression to get EC₅₀ values by GraphPad Prism software.

human CD40 on cells [3] = target: T1, human CD40 on cells; test: flow cytometry on Raji cells
Protocol: as §1

human CD40 on cells [4] = target: T1, human CD40 on cells; test: cell-based or functional assay; remark: listed apart in the source
human CD40 on cells [5] = target: T1, human CD40 on cells; test: cell-based or functional assay; remark: listed apart in the source
human CD40 on cells [6] = target: T1, human CD40 on cells; test: flow cytometry on U-2 OS/NFκB cells
Protocol: as §1, with “cultured U-2 OS/NFκB” for “Raji”

human CD40 on cells [7] = target: T1, human CD40 on cells; test: cell-based or functional assay; remark: listed apart in the source
human CD40 on cells [8] = target: T1, human CD40 on cells; test: flow cytometry on U-2 OS/NFκB cells; EC50 relative to mAb1
Protocol: as §1, with “cultured U-2 OS/NFκB” for “Raji”

T1 sequence (P25942 21-277 limits assumed): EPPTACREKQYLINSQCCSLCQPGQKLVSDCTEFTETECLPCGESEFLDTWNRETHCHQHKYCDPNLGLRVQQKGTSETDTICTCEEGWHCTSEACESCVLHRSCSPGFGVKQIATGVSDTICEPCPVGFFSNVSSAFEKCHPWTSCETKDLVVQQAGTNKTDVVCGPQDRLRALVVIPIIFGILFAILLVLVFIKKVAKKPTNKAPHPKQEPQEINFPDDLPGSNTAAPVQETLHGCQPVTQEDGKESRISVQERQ

B1: MC1 (masked mAb1 comprising MM1 and CL1) (antibody, human IgG2, kappa)
heavy: QVQLVQSGAEVKKPGASVKVSCKASGYTFTGKYMHWVRQAPGQGLEWMGWINPDSGGTNYAQKFQGRVTMTRDTSIATAYMELNRLRSDDTAVYYCARDQPLGYCTNGVCSYFDYWGQGTLVTVSSASTKGPSVFPLAPCSRSTSESTAALGCLVKDYFPEPVTVSWNSGALTSGVHTFPAVLQSSGLYSLSSVVTVPSSNFGTQTYTCNVDHKPSNTKVDKTVERKCCVECPPCPAPPVAGPSVFLFPPKPKDTLMISRTPEVTCVVVDVSHEDPEVQFNWYVDGVEVHNAKTKPREEQFNSTFRVVSVLTVVHQDWLNGKEYKCKVSNKGLPAPIEKTISKTKGQPREPQVYTLPPSREEMTKNQVSLTCLVKGFYPSDIAVEWESNGQPENNYKTTPPMLDSDGSFFLYSKLTVDKSRWQQGNVFSCSVMHEALHNHYTQKSLSLSPGK
light: EDEPGIRCYYNDDTCQYGGGPLGLAGSGGSDIQMTQSPSSVSASVGDRVTITCRASQGIYSWLAWYQQKPGKAPNLLIYTASTLQSGVPSRFSGSGSGTDFTLTISSLQPEDFATYYCQQANIFPLTFGGGTKVEIKRTVAAPSVFIFPPSDEQLKSGTASVVCLLNNFYPREAKVQWKVDNALQSGNSQESVTEQDSKDSTYSLSSTLTLSKADYEKHKVYACEVTHQGLSSPVTKSFNRGEC
notes: Conditionally-active (masked) antibody
Human CD40 on cells [1]
  EC50, luciferase reporter assay in U-2 OS/NFκB cells: 0.179 µM
  Relative masking efficacy, luciferase reporter assay in U-2 OS/NFκB cells: 753 fold
Human CD40 on cells [2]
  Relative masking efficacy: 355 fold
Human CD40 on cells [3]
  EC50: 0.476 µM
Human CD40 on cells [4]
  EC50, CD86 expression, primary human B-cell activation assay: 0.0403 µM
  Relative masking efficacy, CD86 expression, primary human B-cell activation assay: 231 fold
Human CD40 on cells [5]
  EC50, CD83 expression, MoDC maturation assay: 0.0565 µM
  EC50, IL-8 release, MoDC maturation assay: 0.0195 µM
Human CD40 on cells [6]
  EC50: 0.33 µM
Human CD40 on cells [7]
  EC50, CD83 expression, B-cells of hCD40 KI mice: 0.0067 µM
  EC50, CD86 expression, B-cells of hCD40 KI mice: 0.00357 µM
  Relative masking efficacy, CD83 expression, B-cells of hCD40 KI mice: 131 fold
  Relative masking efficacy, CD86 expression, B-cells of hCD40 KI mice: 115 fold
Human CD40 on cells [8]
  Relative masking efficacy: 220 fold

B2: MMP9-activated (MC1/MC2) (antibody, not shown: small tags and cut ends)
heavy: QVQLVQSGAEVKKPGASVKVSCKASGYTFTGKYMHWVRQAPGQGLEWMGWINPDSGGTNYAQKFQGRVTMTRDTSIATAYMELNRLRSDDTAVYYCARDQPLGYCTNGVCSYFDYWGQGTLVTVSSASTKGPSVFPLAPCSRSTSESTAALGCLVKDYFPEPVTVSWNSGALTSGVHTFPAVLQSSGLYSLSSVVTVPSSNFGTQTYTCNVDHKPSNTKVDKTVERKCCVECPPCPAPPVAGPSVFLFPPKPKDTLMISRTPEVTCVVVDVSHEDPEVQFNWYVDGVEVHNAKTKPREEQFNSTFRVVSVLTVVHQDWLNGKEYKCKVSNKGLPAPIEKTISKTKGQPREPQVYTLPPSREEMTKNQVSLTCLVKGFYPSDIAVEWESNGQPENNYKTTPPMLDSDGSFFLYSKLTVDKSRWQQGNVFSCSVMHEALHNHYTQKSLSLSPGK
light: DIQMTQSPSSVSASVGDRVTITCRASQGIYSWLAWYQQKPGKAPNLLIYTASTLQSGVPSRFSGSGSGTDFTLTISSLQPEDFATYYCQQANIFPLTFGGGTKVEIKRTVAAPSVFIFPPSDEQLKSGTASVVCLLNNFYPREAKVQWKVDNALQSGNSQESVTEQDSKDSTYSLSSTLTLSKADYEKHKVYACEVTHQGLSSPVTKSFNRGEC
Human CD40 on cells [1]
  EC50, luciferase reporter assay in U-2 OS/NFκB cells: 0.000261 µM
  Relative masking efficacy, luciferase reporter assay in U-2 OS/NFκB cells: 1.1 fold
Human CD40 on cells [2]
  Relative masking efficacy: 1.1 fold
Human CD40 on cells [3]
  EC50: 0.00146 µM
Human CD40 on cells [4]
  EC50, CD86 expression, primary human B-cell activation assay: 0.000114 µM
  Relative masking efficacy, CD86 expression, primary human B-cell activation assay: 0.65 fold
Human CD40 on cells [6]
  EC50: 0.00194 µM
Human CD40 on cells [8]
  Relative masking efficacy: 1.3 fold

B3: MC2 (masked mAb1 comprising MM2 and CL1) (antibody, human IgG2, kappa)
heavy: QVQLVQSGAEVKKPGASVKVSCKASGYTFTGKYMHWVRQAPGQGLEWMGWINPDSGGTNYAQKFQGRVTMTRDTSIATAYMELNRLRSDDTAVYYCARDQPLGYCTNGVCSYFDYWGQGTLVTVSSASTKGPSVFPLAPCSRSTSESTAALGCLVKDYFPEPVTVSWNSGALTSGVHTFPAVLQSSGLYSLSSVVTVPSSNFGTQTYTCNVDHKPSNTKVDKTVERKCCVECPPCPAPPVAGPSVFLFPPKPKDTLMISRTPEVTCVVVDVSHEDPEVQFNWYVDGVEVHNAKTKPREEQFNSTFRVVSVLTVVHQDWLNGKEYKCKVSNKGLPAPIEKTISKTKGQPREPQVYTLPPSREEMTKNQVSLTCLVKGFYPSDIAVEWESNGQPENNYKTTPPMLDSDGSFFLYSKLTVDKSRWQQGNVFSCSVMHEALHNHYTQKSLSLSPGK
light: EVGSYYVCPVRFQYFCEEGGGPLGLAGSGGSDIQMTQSPSSVSASVGDRVTITCRASQGIYSWLAWYQQKPGKAPNLLIYTASTLQSGVPSRFSGSGSGTDFTLTISSLQPEDFATYYCQQANIFPLTFGGGTKVEIKRTVAAPSVFIFPPSDEQLKSGTASVVCLLNNFYPREAKVQWKVDNALQSGNSQESVTEQDSKDSTYSLSSTLTLSKADYEKHKVYACEVTHQGLSSPVTKSFNRGEC
notes: as for B1
Human CD40 on cells [1]
  EC50, luciferase reporter assay in U-2 OS/NFκB cells: 0.113 µM
  Relative masking efficacy, luciferase reporter assay in U-2 OS/NFκB cells: 477 fold
Human CD40 on cells [2]
  Relative masking efficacy: 364 fold
Human CD40 on cells [3]
  EC50: 0.488 µM
Human CD40 on cells [4]
  EC50, CD86 expression, primary human B-cell activation assay: 0.0285 µM
  Relative masking efficacy, CD86 expression, primary human B-cell activation assay: 176 fold
Human CD40 on cells [5]
  EC50, CD83 expression, MoDC maturation assay: 0.0331 µM
  EC50, IL-8 release, MoDC maturation assay: 0.0151 µM
Human CD40 on cells [6]
  EC50: 0.317 µM
Human CD40 on cells [7]
  EC50, CD83 expression, B-cells of hCD40 KI mice: 0.00231 µM
  EC50, CD86 expression, B-cells of hCD40 KI mice: 0.00146 µM
  Relative masking efficacy, CD83 expression, B-cells of hCD40 KI mice: 45.2 fold
  Relative masking efficacy, CD86 expression, B-cells of hCD40 KI mice: 47.2 fold
Human CD40 on cells [8]
  Relative masking efficacy: 211 fold

B4: uPA-activated (MC3/MC4) (antibody, not shown: small tags and cut ends)
heavy: QVQLVQSGAEVKKPGASVKVSCKASGYTFTGKYMHWVRQAPGQGLEWMGWINPDSGGTNYAQKFQGRVTMTRDTSIATAYMELNRLRSDDTAVYYCARDQPLGYCTNGVCSYFDYWGQGTLVTVSSASTKGPSVFPLAPCSRSTSESTAALGCLVKDYFPEPVTVSWNSGALTSGVHTFPAVLQSSGLYSLSSVVTVPSSNFGTQTYTCNVDHKPSNTKVDKTVERKCCVECPPCPAPPVAGPSVFLFPPKPKDTLMISRTPEVTCVVVDVSHEDPEVQFNWYVDGVEVHNAKTKPREEQFNSTFRVVSVLTVVHQDWLNGKEYKCKVSNKGLPAPIEKTISKTKGQPREPQVYTLPPSREEMTKNQVSLTCLVKGFYPSDIAVEWESNGQPENNYKTTPPMLDSDGSFFLYSKLTVDKSRWQQGNVFSCSVMHEALHNHYTQKSLSLSPGK
light: DIQMTQSPSSVSASVGDRVTITCRASQGIYSWLAWYQQKPGKAPNLLIYTASTLQSGVPSRFSGSGSGTDFTLTISSLQPEDFATYYCQQANIFPLTFGGGTKVEIKRTVAAPSVFIFPPSDEQLKSGTASVVCLLNNFYPREAKVQWKVDNALQSGNSQESVTEQDSKDSTYSLSSTLTLSKADYEKHKVYACEVTHQGLSSPVTKSFNRGEC
notes: Masked compound with CL2 (MC3 or MC4, printed 'MC3/MC4') after cleavage of the masking moiety by recombinant human uPA
Human CD40 on cells [1]
  EC50, luciferase reporter assay in U-2 OS/NFκB cells: 0.000362 µM
  Relative masking efficacy, luciferase reporter assay in U-2 OS/NFκB cells: 1.5 fold
Human CD40 on cells [2]
  Relative masking efficacy: 1.5 fold
Human CD40 on cells [3]
  EC50: 0.00201 µM
Human CD40 on cells [4]
  EC50, CD86 expression, primary human B-cell activation assay: 0.000134 µM
  Relative masking efficacy, CD86 expression, primary human B-cell activation assay: 0.77 fold
Human CD40 on cells [6]
  EC50: 0.00252 µM
Human CD40 on cells [8]
  Relative masking efficacy: 1.7 fold

B5: MC3 (masked mAb1 comprising MM1 and CL2) (antibody, human IgG2, kappa)
heavy: QVQLVQSGAEVKKPGASVKVSCKASGYTFTGKYMHWVRQAPGQGLEWMGWINPDSGGTNYAQKFQGRVTMTRDTSIATAYMELNRLRSDDTAVYYCARDQPLGYCTNGVCSYFDYWGQGTLVTVSSASTKGPSVFPLAPCSRSTSESTAALGCLVKDYFPEPVTVSWNSGALTSGVHTFPAVLQSSGLYSLSSVVTVPSSNFGTQTYTCNVDHKPSNTKVDKTVERKCCVECPPCPAPPVAGPSVFLFPPKPKDTLMISRTPEVTCVVVDVSHEDPEVQFNWYVDGVEVHNAKTKPREEQFNSTFRVVSVLTVVHQDWLNGKEYKCKVSNKGLPAPIEKTISKTKGQPREPQVYTLPPSREEMTKNQVSLTCLVKGFYPSDIAVEWESNGQPENNYKTTPPMLDSDGSFFLYSKLTVDKSRWQQGNVFSCSVMHEALHNHYTQKSLSLSPGK
light: EDEPGIRCYYNDDTCQYSGRSAGGGGPLGLAGSGGSDIQMTQSPSSVSASVGDRVTITCRASQGIYSWLAWYQQKPGKAPNLLIYTASTLQSGVPSRFSGSGSGTDFTLTISSLQPEDFATYYCQQANIFPLTFGGGTKVEIKRTVAAPSVFIFPPSDEQLKSGTASVVCLLNNFYPREAKVQWKVDNALQSGNSQESVTEQDSKDSTYSLSSTLTLSKADYEKHKVYACEVTHQGLSSPVTKSFNRGEC
notes: as for B1
Human CD40 on cells [1]
  EC50, luciferase reporter assay in U-2 OS/NFκB cells: 0.108 µM
  Relative masking efficacy, luciferase reporter assay in U-2 OS/NFκB cells: 457 fold
Human CD40 on cells [2]
  Relative masking efficacy: 289 fold
Human CD40 on cells [3]
  EC50: 0.388 µM
Human CD40 on cells [4]
  EC50, CD86 expression, primary human B-cell activation assay: 0.0279 µM
  Relative masking efficacy, CD86 expression, primary human B-cell activation assay: 158 fold
Human CD40 on cells [5]
  EC50, CD83 expression, MoDC maturation assay: 0.0274 µM
  EC50, IL-8 release, MoDC maturation assay: 0.0133 µM
Human CD40 on cells [6]
  EC50: 0.197 µM
Human CD40 on cells [7]
  EC50, CD83 expression, B-cells of hCD40 KI mice: 0.00284 µM
  EC50, CD86 expression, B-cells of hCD40 KI mice: 0.00201 µM
  Relative masking efficacy, CD83 expression, B-cells of hCD40 KI mice: 55.7 fold
  Relative masking efficacy, CD86 expression, B-cells of hCD40 KI mice: 64.9 fold
Human CD40 on cells [8]
  Relative masking efficacy: 131 fold

Reference: patent publication US20240279350A1 (Sanofi, published 2024)
